Here are results for 11 molecules from patent US20210277146A1 (BEIJING DONGFANG BIOTECH, published 2021).

Substitutions are numbered along the chain they refer to.

B1: DFSK9-13 complete antibody (antibody, V domains shown)
VH: QVQLVQSGAEVKKPGASVKVSCKASGYSLTSYGISWVRQAPGQGLEWMGWVSFYQGNTNYAQKLQGRGTMTTDPSTSTAYMELRSLRSDDTAVYYCARGYGMTVWGQGTTVTVSS
VL: DIQMTQSPSSLSASVGDRVTITCRASQDVDSWLTWYQQKPGKAPKLLIYGASNLASGVPSRFSGSGSGTDFTLTISSLQPEDFATYYCQQDSKIPLTFGQGTKVEIK
B2: DFSK9-18 complete antibody (antibody, V domains shown)
VH: B1 VH with S28T, L29V, Q55N, T58S, G101S, M102L, T103D
VL: DIQMTQSPSSLSASVGDRVTITCRASQNINSWLNWYQQKPGKAPKLLIYGASSRQSGVPSRFSGSGSGTDFTLTISSLQPEDFATYYCQQWFDVPTTFGQGTKVEIK
B3: DFSK9-20 complete antibody (antibody, V domains shown)
VH: B1 VH with Q55N, T58S, Y100F, T103D, V104R
VL: B2 VL with S31N, S53T, Q55P, S56T, F92D, V94T, T96N
B4: DFSK9-16 complete antibody (antibody, V domains shown)
VH: B1 VH with S28T, L29V, Y100F, T103D, V104R
VL: B2 VL
B5: DFSK9-17 complete antibody (antibody, V domains shown)
VH: B1 VH with S28T, L29V, Q55N, T58S, G101S, M102L, T103D
VL: B2 VL with S31N, S53T, Q55P, S56T, F92D, V94T, T96N
B6: DFSK9-14 complete antibody (antibody, V domains shown)
VH: B1 VH with Q55N, N57Q, T103S, V104I
VL: B2 VL
B7: DFSK9-15 complete antibody (antibody, V domains shown)
VH: B1 VH with S28T, L29V, Q55N, N57Q, G101S, M102L, T103D
VL: B2 VL with S31N, S53T, Q55P, S56T, F92D, V94T, T96N
B8: DFSK9-21 complete antibody (antibody, V domains shown)
VH: B1 VH with Q55N, N57Q, Y100F, T103D, V104R
VL: B2 VL with S31N, S53T, Q55P, S56T, F92D, V94T, T96N
notes: also called DF5K9-21
B9: DFSK9-1 complete antibody (antibody, V domains shown)
VH: QVQLVQSGAEVKRPGASVKVSCKASGGTFTNNAISWVRQAPGQGLEWMGRIIPMFGMANYAQKLQGRGTMTTDPSTSTAYMELRSLRSDDTAVYYCAREGIPMIWGQGTTVTVSS
VL: B2 VL with N28S, N30D, S31N, W32R, N34T, G50D, W91P, F92E, D93N, V94D
B10: DFSK9-12 complete antibody (antibody, V domains shown)
VH: B1 VH with S28T, L29V, V51L, Q55N, G101S, M102L, T103D
VL: B1 VL with D28S, D30R, S31N, T34D, N53T, A55E, S92N, K93D
B11: DFSK9-19 complete antibody (antibody, V domains shown)
VH: B1 VH with S52T, Q55N, Y100F, M102L, T103S
VL: B2 VL with I29V, S31N, G50A, S53T, Q55E, S56T, W91D, F92N, V94M, T96L

T1 sequence (Q8NBP7 31-692 limits assumed): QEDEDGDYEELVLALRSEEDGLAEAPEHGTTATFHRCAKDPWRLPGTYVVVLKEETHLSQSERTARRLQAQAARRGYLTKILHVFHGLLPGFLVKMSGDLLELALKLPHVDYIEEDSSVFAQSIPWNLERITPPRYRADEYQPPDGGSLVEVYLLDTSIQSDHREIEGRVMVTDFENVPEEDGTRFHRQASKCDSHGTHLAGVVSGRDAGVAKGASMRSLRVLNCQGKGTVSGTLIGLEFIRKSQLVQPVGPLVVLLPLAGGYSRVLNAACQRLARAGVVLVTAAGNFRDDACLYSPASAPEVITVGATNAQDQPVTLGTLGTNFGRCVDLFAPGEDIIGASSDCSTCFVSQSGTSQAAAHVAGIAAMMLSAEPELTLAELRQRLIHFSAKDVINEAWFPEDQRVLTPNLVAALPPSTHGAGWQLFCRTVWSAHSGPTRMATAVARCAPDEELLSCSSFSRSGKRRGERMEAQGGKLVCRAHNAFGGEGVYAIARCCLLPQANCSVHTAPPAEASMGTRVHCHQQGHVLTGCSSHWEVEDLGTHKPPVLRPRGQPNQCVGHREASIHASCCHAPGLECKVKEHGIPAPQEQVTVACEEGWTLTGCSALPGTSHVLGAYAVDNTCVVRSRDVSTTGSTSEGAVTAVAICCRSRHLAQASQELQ
T2 sequence (Q8NBP7 31-692 limits assumed): as above

One experiment concerns the target T1, PCSK9 (UniProt Q8NBP7 31-692, limits assumed). Briefly: cell-based or functional assay.
On to B1, for which the “EC50 value of bioactivity testing (BODIPY-LDL uptake in HepG2 cells, RFU)” value (from here on “EC50 value of bioactivity testing”) turned out to be 29.6 nmol/L.

As to B2, the “EC50 value of bioactivity testing” value came to 23.9 nmol/L.

On to B3, for which the “EC50 value of bioactivity testing” value is 17.9 nmol/L.

Consider B4, for which the “EC50 value of bioactivity testing” value was 23.8 nmol/L.

As to B5, the “EC50 value of bioactivity testing” value came to 18.5 nmol/L.

Consider B6, for which the “EC50 value of bioactivity testing” value amounted to 16.6 nmol/L.

Regarding B7, the “EC50 value of bioactivity testing” value was found to be 15.3 nmol/L.

With B8, the “EC50 value of bioactivity testing” value came to 20.3 nmol/L.

A further experiment concerns the target T2, PCSK9-His (UniProt Q8NBP7 31-692).
T2 construct: also called antigen PCSK9-His; Proprotein Convertase Subtilisin/Kexin Type 9; not shown: His tag
Nature of the experiment: ELISA, PCSK9-His coated, complete antibody titrated, anti-human IgG-HRP. How it is done:
Coating PCSK9-His (300 ng/well/100 μl) by 0.01M PBS buffer at pH 7.2 overnight at 4° C., washing three times with PBST (1‰ Tween 20) of 300 μl/well, further adding PBST-4% milk, and blocking for one hour at 37° C.; adding complete antibodies DFSK9-1, DFSK9-12, DFSK9-13, DFSK9-14, DFSK9-15, DFSK9-16, DFSK9-17, DFSK9-18, DFSK9-19, DFSK9-20 and DFSK9-21 of different dilution degrees; the highest concentration of the 11 complete antibodies is 50 μg/ml, diluting at a five-time gradient, diluting for eight gradients for each complete antibody, and incubating for one hour at 37° C.; washing 5 times with PBST of 300 μl/well, further adding a goat-anti-human IgG-HRP secondary antibody diluted by PBST-4% milk at a ratio of 1:5000, and incubating for one hour at 37° C.; washing 5 times with PBST of 300 μl/well, developing by using a Tetramethylbenzidine (TMB) developing kit (100 μl/well), developing for 10 minutes at a room temperature, and terminating developing with 2M H₂SO₄ (50 μl/well); reading numbers by using a microplate reader at wavelengths of 450 nm and 630 nm; analyzing data and drawing pictures by using software GraphPad Prism 5Demo, and results are shown in FIG. 8 and table 2.
In general terms: ELISA stands for enzyme-linked immunosorbent assay.
The EC50 is the concentration needed to bring the measured effect to its halfway point. Higher therefore signals a need for much substance. Regarding B9, it took 0.171 µg/mL to reach a half-maximal effect (EC50).

Molecule B1 had a concentration giving a half-maximal response (EC50) of 0.0835 µg/mL.

Turning to B10, the half-maximal effective concentration (EC50) was determined as 0.0646 µg/mL.

Consider B2, for which the concentration for a half-maximal effect (EC50) stood at 0.0339 µg/mL.

For the molecule B3, the EC50 came to 0.0337 µg/mL.

Consider B4, for which the EC50 is 0.0562 µg/mL.

B5 showed an EC50 of 0.0314 µg/mL.

In turn, B6 yielded a concentration giving a half-maximal response (EC50) of 0.0422 µg/mL.

As to B7, the midpoint of the response, the EC50, lay at 0.0397 µg/mL.

B8 gave an EC50 of 0.0282 µg/mL.

B11 had an EC50 of 0.0832 µg/mL.

For a further experiment, the target named is T1, PCSK9. Nature of the experiment: SPR BIAcore X100, antibody captured by goat anti-human IgG on CM5, PCSK9 as analyte. In general terms: In SPR one partner is held on a chip, and binding of the other changes the refractive index at the surface.
The Kd is the equilibrium constant for the complex coming apart. Usually koff stands for a measure of how fast the partners let go of each other. Usually kon stands for the rate constant with which the complex forms. Read a low kon as slow association. With B9, the Kd amounted to 0.175 nM, the off-rate (koff) stood at 9.19e-05 s⁻¹ and the on-rate (kon) was 518000 M⁻¹ s⁻¹.

Regarding B1, the Kd is 0.052 nM, the koff amounted to 2.99e-05 s⁻¹ and the kon stood at 575000 M⁻¹ s⁻¹.

With B10, binding was characterised by a dissociation constant (Kd) of 0.119 nM, the koff is 4.98e-05 s⁻¹ and the kon is 418000 M⁻¹ s⁻¹.

B2 came in with a Kd of 0.00389 nM, a dissociation rate constant (koff) of 1.99e-06 s⁻¹ and a kon of 512000 M⁻¹ s⁻¹.

In turn, B3 yielded a dissociation constant (Kd) of 0.0157 nM, a koff of 1.45e-05 s⁻¹ and a kon of 925000 M⁻¹ s⁻¹.

For the molecule B4, the Kd is 0.0461 nM, the koff is 5.61e-05 s⁻¹ and the kon amounted to 1.22e+06 M⁻¹ s⁻¹.

In turn, B5 returned a dissociation constant Kd of 0.00156 nM, a dissociation rate constant (koff) of 1.84e-06 s⁻¹ and a kon of 1.18e+06 M⁻¹ s⁻¹.

For B6, binding was put at a Kd of 0.0293 nM, the koff was determined as 7.9e-05 s⁻¹ and the kon stood at 2.7e+06 M⁻¹ s⁻¹.

The molecule B7 registered a dissociation constant (Kd) of 0.00875 nM, a koff of 4.75e-06 s⁻¹ and an association rate constant (kon) of 542000 M⁻¹ s⁻¹.

B8 gave a Kd of 0.00716 nM, a koff of 4.24e-06 s⁻¹ and a kon of 592000 M⁻¹ s⁻¹.

Consider B11, for which binding was put at a Kd of 0.186 nM, the koff was 7.34e-05 s⁻¹ and the association rate constant (kon) was found to be 395000 M⁻¹ s⁻¹.

For a further experiment, the target named is T2, PCSK9-His. Nature of the experiment: competition ELISA, LDLR-Fc coated, PCSK9-His 2 ug/ml, antibody titrated, anti-His-HRP. How it is done: Coating LDLR-Fc (100 ng/well/100 μl) by 0.01M PBS buffer at pH 7.2 overnight at 4° C., washing three times with PBST, further adding PBST-4% milk, and blocking for one hour at 37° C.; further adding 2 μg/ml PCSK9-His (100 μlwell) diluted by PBST-4% milk, and incubating to one hour at 37° C.; adding complete antibodies DFSK9-1, DFSK9-12, DFSK9-13, DFSK9-14, DFSK9-15, DFSK9-16, DFSK9-17, DFSK9-18, DFSK9-19, DFSK9-20 and DFSK9-21 of different dilution degrees; the highest concentration of the 11 complete antibodies is 100 μg/ml, diluting at a five-time gradient, diluting for eight gradients for each complete antibody, and incubating for 2 hours at 37° C.; washing 5 times with PBST, further adding a mouse-anti His IgG-HRP secondary antibody diluted by PBST-4% milk, and incubating for 1 hour at 37° C.; developing by using the TMB developing kit (100 μl/well), developing for 10 minutes at the room temperature, and terminating developing with 2M H₂SO₄ (50 μl/well); reading numbers by using the microplate reader at 450 nm and 630 nm; analyzing data and drawing pictures by using software GraphPad Prism 5 Demo, and results are shown in FIG. 9 and table 3.
As a reminder, the IC50 is the concentration that inhibits the measured activity by half. A high value points to a need for much substance. B9: the half-inhibitory concentration (IC50) came out at 0.847 µg/mL.

Take B1: the half-inhibitory concentration (IC50) turned out to be 0.383 µg/mL.

Molecule B10 displayed a concentration for half-maximal inhibition (IC50) of 0.266 µg/mL.

For B2, the IC50 came to 0.107 µg/mL.

In turn, B3 yielded an IC50 of 0.216 µg/mL.

Molecule B4 gave a half-maximal inhibitory concentration (IC50) of 0.282 µg/mL.

Turning to B5, the IC50 was 0.089 µg/mL.

For the molecule B6, the IC50 was determined as 0.146 µg/mL.

The molecule B7 displayed an IC50 of 0.114 µg/mL.

On to B8, for which the IC50 amounted to 0.161 µg/mL.

B11 displayed an IC50 of 0.533 µg/mL.
